{"source": "paper doi:10.1101/841569", "about": "(bioRxiv, 2019)", "proteins": {"B1": {"name": "Mycobacterium tuberculosis MenD (2-succinyl-5-enolpyruvyl-6-hydroxy-3-cyclohexadiene-1-carboxylate synthase, SEPHCHC synthase) (enzyme)", "chain": "MNPSTTQARVVVDELIRGGVRDVVLCPGSRNAPLAFALQDADRSGRIRLHVRIDERTAGYLAIGLAIGAGAPVCVAMTSGTAVANLGPAVVEANYARVPLIVLSANRPYELLGTGANQTMEQLGYFGTQVRASISLGLAEDAPERTSALNATWRSATCRVLAAATGARTANAGPVHFDIPLREPLVPDPEPLGAVTPPGRPAGKPWTYTPPVTFDQPLDIDLSVDTVVISGHGAGVHPNLAALPTVAEPTAPRSGDNPLHPLALPLLRPQQVIMLGRPTLHRPVSVLLADAEVPVFALTTGPRWPDVSGNSQATGTRAVTTGAPRPAWLDRCAAMNRHAIAAVREQLAAHPLTTGLHVAAAVSHALRPGDQLVLGASNPVRDVALAGLDTRGIRVRSNRGVAGIDGTVSTAIGAALAYEGAHERTGSPDSPPRTIALIGDLTFVHDSSGLLIGPTEPIPRSLTIVVSNDNGGGIFELLEQGDPRFSDVSSRIFGTPHDVDVGALCRAYHVESRQIEVDELGPTLDQPGAGMRVLEVKADRSSLRQLHAAIKAAL"}}, "target": "the molecule itself", "test": "crystal structure", "data": [{"protein": "B1", "values": [{"measurement": "stoichiometry N", "value": 4}]}]}
